Read-outs that look alike come from different tables or passages of the source.
Legend:
[1] = molecular target: human coagulation factor X (FX), full-length zymogen (human) (UniProt P00742)
[2] = molecular target: human coagulation factor X (FX), full-length zymogen (human) (UniProt P00742); assay: SPR (Biacore T100); human FX immobilised on CM5 chip, inhibitor injected; heterogeneous ligand model
[3] = molecular target: mouse coagulation factor X (mouse) (UniProt O88947); assay: SPR (Biacore T100); mouse FX immobilised on CM5 chip, inhibitor injected; heterogeneous ligand model
Chain of mouse coagulation factor X (mouse) (O88947 41-481 limits assumed): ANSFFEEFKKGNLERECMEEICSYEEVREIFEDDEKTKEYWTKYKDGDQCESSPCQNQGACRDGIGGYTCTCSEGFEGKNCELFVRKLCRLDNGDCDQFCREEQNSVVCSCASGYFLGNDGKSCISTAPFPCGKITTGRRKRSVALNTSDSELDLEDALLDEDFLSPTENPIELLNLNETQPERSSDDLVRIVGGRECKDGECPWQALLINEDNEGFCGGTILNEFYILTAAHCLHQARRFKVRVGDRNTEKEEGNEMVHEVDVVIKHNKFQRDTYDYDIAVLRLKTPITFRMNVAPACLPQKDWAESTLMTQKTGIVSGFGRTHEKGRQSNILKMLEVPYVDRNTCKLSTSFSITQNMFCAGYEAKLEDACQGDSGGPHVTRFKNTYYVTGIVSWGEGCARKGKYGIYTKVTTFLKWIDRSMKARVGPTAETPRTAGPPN

Chain of human coagulation factor X (FX), full-length zymogen (human) (P00742 41-488 limits assumed): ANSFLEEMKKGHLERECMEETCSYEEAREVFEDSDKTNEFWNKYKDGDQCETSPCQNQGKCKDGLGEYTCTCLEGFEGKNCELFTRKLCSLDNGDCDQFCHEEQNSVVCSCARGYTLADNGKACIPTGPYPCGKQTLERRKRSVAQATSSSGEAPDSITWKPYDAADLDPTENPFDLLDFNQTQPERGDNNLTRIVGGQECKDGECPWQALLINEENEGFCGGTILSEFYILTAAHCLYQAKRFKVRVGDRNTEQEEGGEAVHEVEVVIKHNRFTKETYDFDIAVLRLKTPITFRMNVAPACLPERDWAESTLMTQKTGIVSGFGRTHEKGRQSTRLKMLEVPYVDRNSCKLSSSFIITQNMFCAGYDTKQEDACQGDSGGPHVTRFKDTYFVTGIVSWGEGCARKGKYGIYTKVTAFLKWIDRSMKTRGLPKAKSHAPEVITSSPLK
Chain of Ixolaris, 12 kDa two-Kunitz domain protein isolated from tick salivary gland (Q964Q0 27-165 limits assumed): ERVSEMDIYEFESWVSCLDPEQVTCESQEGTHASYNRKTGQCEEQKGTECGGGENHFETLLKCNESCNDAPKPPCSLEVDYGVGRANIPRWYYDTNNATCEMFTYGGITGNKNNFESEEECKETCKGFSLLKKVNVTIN

| Substance | Kd [1] | koff [1] | kon [1] | Kd [2] | koff [2] | kon [2] | Kd [3] | koff [3] | kon [3] |
| --- | --- | --- | --- | --- | --- | --- | --- | --- | --- |
| Ixolaris, 12 kDa two-Kunitz domain protein isolated from tick salivary gland (from UniProt Q964Q0 27-165) (other; other documents disagree on this pair) | 1.3 nM | 0.000175 s⁻¹ | 135000 M⁻¹ s⁻¹ | – | – | – | – | – | – |
| nematode anticoagulant peptide-2 (NAPc2) | – | – | – | 0.0728 nM | 0.000623 s⁻¹ | 8.6e+06 M⁻¹ s⁻¹ | 17 nM | 0.31 s⁻¹ | 1.8e+07 M⁻¹ s⁻¹ |

From patent publication US20110104788A1
